Reference: US7666989B2 (priority 2003, dated 2010)
Values joined by “and” are separate entries in the source; they are usually repeats but may differ in a detail not shown here. Equal entries are not always repeated. “Also recorded” adds a separate entry of the source. Where two headings read alike, the source gives them in different places. Marks after values point to notes of the source that are not given here.

How the values were obtained:
[1] = system: H125 (human lung cancer cell); assay: MTT cytotoxicity, H125; assay type: cell-based; settings: 4 days
Description: (§1) Reagents: RPMI1640 is from GIBCO; MTT is from Bebco. Fetal bovine serum is purchased from Hangzhou SiJiQing Bioengineering Material Co. Ltd. (P. R. China).
(§2) Cell lines: COLO 205 (human colon cancer cell), NCI-H460 (human lung cancer cell), RPMI 8226 (human multiple myeloma cell), U251 (human brain glioma cell) are from ATCC, USA. HL-60 (human promyelocytic leukemia cell), MDA-MB-231, MDA-MB-435 (human breast cancer cell), SCLC (human small-cell lung cancer cell), H125 (human lung cancer cell) and PC-3 (human […] cancer cell).
(§3) The well-grown tumor cells were collected to prepare a cell suspension (1×10^4/ml) with RPMI 1640 medium containing 10% fetal bovine serum. The cell suspension was inoculated into a 96-well plate, 100 μL (containing 1000 tumor cells) per well. The plate was cultured in a 5% CO2 incubator at 37° C. for 24 hours, followed by addition of medicament.
(§4) A blank control and a positive control using 5-fluorouracil or adriamycin are employed in the experiment. […]
(§5) The supernatant was discarded. […] After gently shaking, the OD values were measured by a BIORAD 550 enzyme analyzer, with the detection wavelength being 540 nm and the reference wavelength being 450 nm.
(§6) Dose-response curves were generated by plotting with the cell inhibition rates and different concentrations of medicament, and the half inhibitory concentrations (IC50) were calculated.

[2] = system: PC-3 (human pancreas cancer cell); assay: MTT cytotoxicity, PC-3; assay type: cell-based; settings: 4 days
Description: as §1, §2, §3, §4, §5, §6

[3] = Water solubility of the end product; assay type: physicochemical; settings: purified protein, white powder
Description: Finally, the protein was purified by an ion exchange column and a gel filtration column Superdex 200 (Pharmacia) mounted in an AKTA HPLC system (Pharmacia). […] The end product was a white powder and was water soluble.

[4] = system: RPMI 8226 (human multiple myeloma cell); assay: MTT cytotoxicity, RPMI 8226; assay type: cell-based; settings: 4 days
Description: as §1, §2, §3, §4, §5, §6

[5] = system: COLO 205 (human colon cancer cell); assay: MTT cytotoxicity, COLO 205; assay type: cell-based; settings: 4 days
Description: as §1, §2, §3, §4, §5, §6

[6] = system: SCLC (human small-cell lung cancer cell); assay: MTT cytotoxicity, SCLC; assay type: cell-based
Description: as §1, §2, §3
A blank control and a positive control using 5-fluorouracil or adriamycin are employed in the experiment. The CPT samples have five concentrations, three parallel wells for each concentration. The cells were cultured in an incubator with 5% CO2 at 37° C. for 4 days. Then the culture medium was removed and 100 μL MTT solution (0.4 mg/ml in RPMI 1640) was added to each well. The plate was incubated at 37° C. for four additional hours.
The supernatant was discarded. 150 μl DMSO was added into each well in order to solubilize Fomazan granulates. After gently shaking, the OD values were measured by a BIORAD 550 enzyme analyzer, with the detection wavelength being 540 nm and the reference wavelength being 450 nm.
as §6

[7] = system: MDA-MB-435 (human breast cancer cell); assay: MTT cytotoxicity, MDA-MB-435; assay type: cell-based; settings: 4 days
Description: as §1, §2, §3, §4, §5, §6

[8] = system: human colon cancer COLO 205; settings: COLO 205 xenograft; for Body Weight (g) End / RTV / Tumor volume (mm^3) End / Tumor weight / Body Weight (g) Start / Tumor volume (mm^3) Start / Inhibition rate (%): 15 injections; for Body Weight (g) Start / Tumor volume (mm^3) Start: baseline; for Inhibition rate (%): by tumor weight
Description: In this example, the animals used were BALB/c-nu nude mice, 6-8 weeks old. For each experiment, all animals were of the same sex.
Tumor cell lines: human brain glioma U251, human lung cancer cell line NCI-H460, human colon cancer cell line COLO205 were inoculated from in vitro culture into nude mice subcutaneously, the tumors were subcultured and kept.
Experimental Procedures: well-grown nude mice carrying well-grown tumors were selected and sacrificed by disjointing neck vertebra. The tumors were removed aseptically and were cut into pieces having a diameter of 2-3 mm by a scalpel. The pieces were inoculated into the axilla of nude mice subcutaneously by a needle. […] The length and width of tumors were measured by a vernier caliper. The animals were then grouped based their tumor sizes. Each group included seven to eight animals.
The length, width of the tumor and the body weight of the mice were measured twice per week. The tumor volume (TV) and relative tumor volume (RTV) were calculated. A graph indicating the changes of tumor size was plotted. At the end of this experiment, the tumors were taken out and weighed after the mice were sacrificed, and the inhibition rates of the medicament on tumor growth were calculated.
The formula for calculating tumor volume (TV) is: length×width^2÷2.
The formula for calculating relative tumor volume (RTV) is: Vt/Vo (wherein Vo is the TV value measured when the administration is started, Vt is the TV value measured after that).
T-test was used to determine the statistical difference of tumor weights, tumor volumes and RTV etc. between different groups of animal. The index used for evaluating the anti-tumor activity is the relative tumor growth rate T/C (%), the formula for which is: […]
The evaluation standard for efficacy:
T/C (%)>60 is ineffective;
T/C (%)≦60 and P<0.05 after statistical analysis is effective.
Injectable hydroxycamptothecin (trade name: Xi Su, Wuhan Lishizhen Pharmaceuticals Inc., Huangshi Lishizhen Pharmaceuticals Group, P. R. China) was used as positive control, administered by intraperitoneal injection at the dose of 1 mg/kg, once per day. The administration was terminated after 15 consecutive days of administration. […] A single administration of 80 mg/kg hydroxycamptothecin was further given after two weeks. CPT was given to three treatment groups at the doses of 1.7 mg/kg, 5.0 mg/kg, 15.0 mg/kg respectively by intraperitoneal injection, once per day. The treatment contained a total of 15 injections.

[9] = Side or toxic effects in treated tumor-bearing nude mice; assay type: in vivo, BALB/c-nu nude mice; settings: treated nude mice versus negative control; body weight and viability
Description: No substantial difference in the parameters concerning the living status of mice, such as body weight and viability of the treated groups were observed compared with those of the negative control group, except that the sizes of tumor in the treated mice were smaller. […] Therefore, CPT may be used as an effective and safe medicament for treating cancers. CPT is both theoretically and industrially important and has a bright future in the market.

[10] = system: cancer cells; assay: Induction of apoptosis of cancer cells compared with wild type TRAIL; assay type: cell-based; settings: CPT versus wild type TRAIL
[11] = CPT 1.7 mg/kg i.p. once per day
[12] = CPT 5.0 mg/kg i.p. once per day

B1: CPT: human recombinant circularly permuted TRAIL (CPT), which consists of 166 amino acid residues; SEQ ID No:2 (protein)
chain: TLSSPNSKNEKALGRKINSWESSRSGHSFLSNLHLRNGELVIHEKGFYYIYSQTYFRFQEEIKENTKNDKQMVQYIYKYTSYPDPILLMKSARNSCWSKDAEYGLYSIYQGGIFELKENDRIFVSVTNEHLIDMDHEASFFGAFLVGGGGGGVAAHITGTRGRSNT
modifications: Synthetically generated peptide
For B1, the “IC50” value [1] was 0.085 ± 0.006 µg/mL, the “IC50” value [2] was 0.067 ± 0.002 µg/mL and the “water solubility of the end product” value [3] was “water soluble”. The “IC50” value [4] was 0.824 ± 0.093 µg/mL, the “IC50” value [5] was 0.006 ± 0 µg/mL and the “IC50” value ([6]; 4 days) was 10 ± 0 µg/mL. The “inhibitory effect on the growth of SCLC cell” value ([6]; in words) was “some inhibitory effect; also recorded: some inhibition effect”, the “IC50” value [7] was 0.008 ± 0.002 µg/mL and the “Body Weight (g) End” value [8, 11] was 20.6 ± 3.0 g. The RTV [8, 11] was 1.62 ± 0.62, the “Tumor volume (mm^3) End” value [8, 11] was 582 ± 408** mm^3 and the “Tumor weight” value [8, 11] was 0.40 ± 0.33 g. For the same molecule, the “Body Weight (g) Start” value [8, 11] was 20.6 ± 1.1 g, the “Tumor volume (mm^3) Start” value [8, 11] was 205 ± 47 mm^3 and the “Inhibition rate (%)” value [8, 11] was 79.6%. For the same molecule, the “Body Weight (g) End” value [8, 12] was 21.4 ± 1.2 g, the RTV [8, 12] was 0.91 ± 0.35 and the “Tumor volume (mm^3) End” value [8, 12] was 314 ± 175** mm^3. For the same molecule, the “Tumor weight” value [8, 12] was 0.18 ± 0.15 g, the “Body Weight (g) Start” value [8, 12] was 20.2 ± 0.8 g and the “Tumor volume (mm^3) Start” value [8, 12] was 180 ± 63 mm^3. For the same molecule, the “Inhibition rate (%)” value [8, 12] was 90.8% and 90.9%, the “Body Weight (g) End” value ([8]; CPT 15 mg/kg i.p. once per day) was 21.1 ± 2.4 g and the RTV ([8]; CPT 15 mg/kg i.p. once per day) was 0.33 ± 0.27. For the same molecule, the “Tumor volume (mm^3) End” value ([8]; CPT 15 mg/kg i.p. once per day) was 52 ± 53** mm^3, the “Tumor weight” value ([8]; CPT 15 mg/kg i.p. once per day) was 0.05 ± 0.05 g and the “Body Weight (g) Start” value ([8]; CPT 15 mg/kg i.p. once per day) was 20.0 ± 0.5 g. The “Tumor volume (mm^3) Start” value ([8]; CPT 15 mg/kg i.p. once per day) was 192 ± 81 mm^3, the “Inhibition rate (%)” value ([8]; CPT 15 mg/kg i.p. once per day) was 97.4% and 97.8% and the “fraction of animals in which no tumor was found” value ([8]; high-dose CPT (15 mg/kg/day, 15 injections), four weeks after the administration was stopped) was “⅓”. The “side or toxic effects on animals” value [9] was “did not exhibit any apparent side or toxic effects” and the “activity to induce apoptosis of cancer cells relative to wild type TRAIL” value [10] was “six to eleven times as strong”.
